Laboratory results as given in patent US20230407373A1 (priority 2020, published 2023).

B1: RBMS2 (protein, UniProt Q15434 1-407, looked up)
RNA-binding motif, …: MLLSVTSRPGISTFGYNRNNKKPYVSLAQQMAPPSPSNSTPNSSSGSNGNDQLSKTNLYIRGLQPGTTDQDLVKLCQPYGKIVSTKAILDKTTNKCKGYGFVDFDSPSAAQKAVTALKASGVQAQMAKQQEQDPTNLYISNLPLSMDEQELEGMLKPFGQVISTRILRDTSGTSRGVGFARMESTEKCEAIITHFNGKYIKTPPGVPAPSDPLLCKFADGGPKKRQNQGKFVQNGRAWPRNADMGVMALTYDPTTALQNGFYPAPYNITPNRMLAQSALSPYLSSPVSSYQRVTQTSPLQVPNPSWMHHHSYLMQPSGSVLTPGMDHPISLQPASMMGPLTQQLGHLSLSSTGTYMPTAAAMQGAYISQYTPVPSSSVSVEESSGQQNQVAVDAPSEHGVYSFQFNK
B2: ZC3H7A: host protein, UniProt Q8IWRD (protein, UniProt Q8IWR0 1-971, looked up)
Zinc finger CCCH …: MSNVSEERRKRQQNIKEGLQFIQSPLSYPGTQEQYAVYLRALVRNLFNEGNDVYREHDWNNSISQYTEALNIADYAKSEEILIPKEIIEKLYINRIACYSNMGFHDKVLEDCNIVLSLNASNCKALYRKSKALSDLGRYKKAYDAVAKCSLAVPQDEHVIKLTQELAQKLGFKIRKAYVRAELSLKSVPGDGATKALNHSVEDIEPDLLTPRQEAVPVVSLPAPSFSHEVGSELASVPVMPLTSILPLQVEESALPSAVLANGGKMPFTMPEAFLDDGDMVLGDELDDLLDSAPETNETVMPSALVRGPLQTASVSPSMPFSASLLGTLPIGARYAPPPSFSEFYPPLTSSLEDFCSSLNSFSMSESKRDLSTSTSREGTPLNNSNSSLLLMNGPGSLFASENFLGISSQPRNDFGNFFGSAVTKPSSSVTPRHPLEGTHELRQACQICFVKSGPKLMDFTYHANIDHKCKKDILIGRIKNVEDKSWKKIRPRPTKTNYEGPYYICKDVAAEEECRYSGHCTFAYCQEEIDVWTLERKGAFSREAFFGGNGKINLTVFKLLQEHLGEFIFLCEKCFDHKPRMISKRNKDNSTACSHPVTKHEFEDNKCLVHILRETTVKYSKIRSFHGQCQLDLCRHEVRYGCLREDECFYAHSLVELKVWIMQNETGISHDAIAQESKRYWQNLEANVPGAQVLGNQIMPGFLNMKIKFVCAQCLRNGQVIEPDKNRKYCSAKARHSWTKDRRAMRVMSIERKKWMNIRPLPTKKQMPLQFDLCNHIASGKKCQYVGNCSFAHSPEEREVWTYMKENGIQDMEQFYELWLKSQKNEKSEDIASQSNKENGKQIHMPTDYAEVTVDFHCWMCGKNCNSEKQWQGHISSEKHKEKVFHTEDDQYCWQHRFPTGYFSICDRYMNGTCPEGNSCKFAHGNAELHEWEERRDALKMKLNKARKDHLIGPNDNDFGKYSFLFKDLN
B3: PCBP2 (protein, UniProt Q15366 1-365, looked up)
Poly(rC)-binding protein 2: MDTGVIEGGLNVTLTIRLLMHGKEVGSIIGKKGESVKKMREESGARINISEGNCPERIITLAGPTNAIFKAFAMIIDKLEEDISSSMTNSTAASRPPVTLRLVVPASQCGSLIGKGGCKIKEIRESTGAQVQVAGDMLPNSTERAITIAGIPQSIIECVKQICVVMLETLSQSPPKGVTIPYRPKPSSSPVIFAGGQDRYSTGSDSASFPHTTPSMCLNPDLEGPPLEAYTIQGQYAIPQPDLTKLHQLAMQQSHFPMTHGNTGFSGIESSSPEVKGYWGLDASAQTTSHELTIPNDLIGCIIGRQGAKINEIRQMSGAQIKIANPVEGSTDRQVTITGSAASISLAQYLINVRLSSETGGMGSS

Experiments:
[1] = system: HCoV-OC43 gRNA and sgRNA; type: binding; details: for target (unweighted spectral count, OC43 Probe II capture): type n_36_v, FDR<10%; for target (unweighted spectral count, OC43 Probe II capture) / target (unweighted spectral count): tested against no-probe control; for target (unweighted spectral count): OC43 Probe II, 24 hpi (type n_24_v), infected cells
[2] = system: SARS-CoV-2 gRNA and sgRNAs; type: binding; details: for target (unweighted spectral count in RNP capture): Probe II capture, LC-MS/MS LFQ; for background (unweighted spectral count in control): no-probe control pull-down, used as background for Probe II

Molecule | target (unweighted spectral count, OC43 Probe II capture) ([1]; 36 hpi) | target (unweighted spectral count in RNP capture) [2] | background (unweighted spectral count in control) [2] | target (unweighted spectral count) [1] | target (unweighted spectral count, OC43 Probe II) ([1]; type n_48_v, 48 hpi, OC43 Probe II capture on infected cells) | background (unweighted spectral count, no-probe control) ([1]; type n_48_v, 48 hpi, no-probe control on infected cells) | target (spectral count) ([1]; type s_36_m, HCoV-OC43-infected HCT-8 cells, 36 hpi, Probe II) | background (spectral count) ([1]; type s_36_m, uninfected-probe control, 36 hpi, Probe II)
B1 | 4 | 14 | 1 |  |  |  |  | 
B2 | 9 | 14 | 1 | 8 | 9 | 1 | 9 | 1
B3 |  |  | 1 | 10 |  |  |  | 
